{"source": "patent US20070166719A1", "about": "(NEW ENGLAND BIOLABS, published 2007)", "binders": {"B1": {"name": "CspCI specificity subunit (S-CspCI) (other)", "chain": "PKINDLFHLEYGHSLELNRLEQSTAADAVNFVGRAARNNGVTARVAPPPNLKPAAAGTISVALGGQGGAGVAFLQPRPYFCGRDVMVLTPKKHMTDQEKLWWVMCITANRFRFGFGRQANRTLKDLNLPAPQKTPSWVHTANPDAYQGVRSPASVHPVGTLAVSNWKAFILQDLFTIRKGQRLTKANMLPGTVPYIGASDTSNGVTAHIGQKPIHEGGTISVTYDGSIAEAFYQPSPFWASDAVNVLYPKGFTLTPATALFICAIIRMEKYRFNYGRKWHLERMRETVIRLPATATGAPDWDFMEKYIKTLPYSSQLQ", "notes": "also called small subunit; S-subunit"}}, "molecular_target": "T1, R-M-CspCI endonuclease-methyltransferase subunit (Citrobacter species 2144 (NEB#1398))", "T1 construct": "also called large subunit; R-M-subunit", "T1 chain": "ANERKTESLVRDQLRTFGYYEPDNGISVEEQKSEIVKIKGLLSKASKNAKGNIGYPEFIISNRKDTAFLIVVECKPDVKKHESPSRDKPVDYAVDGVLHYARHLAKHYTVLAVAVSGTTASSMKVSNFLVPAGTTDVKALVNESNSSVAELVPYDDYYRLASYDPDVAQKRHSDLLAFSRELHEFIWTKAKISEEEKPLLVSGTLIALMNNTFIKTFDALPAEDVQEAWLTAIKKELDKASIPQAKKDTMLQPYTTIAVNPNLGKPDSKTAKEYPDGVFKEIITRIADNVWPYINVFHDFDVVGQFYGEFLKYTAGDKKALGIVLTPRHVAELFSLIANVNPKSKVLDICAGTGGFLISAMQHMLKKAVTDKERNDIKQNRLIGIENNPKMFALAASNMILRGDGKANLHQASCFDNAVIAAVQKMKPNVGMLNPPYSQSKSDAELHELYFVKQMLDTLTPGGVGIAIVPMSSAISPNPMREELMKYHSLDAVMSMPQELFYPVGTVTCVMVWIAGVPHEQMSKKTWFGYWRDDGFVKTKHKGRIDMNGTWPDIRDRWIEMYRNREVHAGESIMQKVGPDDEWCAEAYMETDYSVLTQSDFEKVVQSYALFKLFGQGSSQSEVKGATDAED", "assay": "HPLC of purified CspCI; molar ratio derived from the mass ratio 1:0.47", "data": [{"binder": "B1", "values": [{"measurement": "molar ratio (70 kDa : 35 kDa protein in the purified enzyme)", "value": "1.06 mol small subunit per mol large subunit"}]}]}
